B1: GFP-CTD (superfolder GFP fused to the C-terminal domain of NFAT5, a.a. 544-1531) (domain or fragment, human, UniProt O94916 544-1531, looked up)
chain: DPAAAGALNVNVKKEISSPARPCSFEEAMKAMKTTGCNLDKVNIIPNALMTPLIPSSMIKSEDVTPMEVTAEKRSSTIFKTTKSVGSTQQTLENISNIAGNGSFSSPSSSHLPSENEKQQQIQPKAYNPETLTTIQTQDISQPGTFPAVSASSQLPNSDALLQQATQFQTRETQSREILQSDGTVVNLSQLTEASQQQQQSPLQEQAQTLQQQISSNIFPSPNSVSQLQNTIQQLQAGSFTGSTASGSSGSVDLVQQVLEAQQQLSSVLFSAPDGNENVQEQLSADIFQQVSQIQSGVSPGMFSSTEPTVHTRPDNLLPGRAESVHPQSENTLSNQQQQQQQQQQVMESSAAMVMEMQQSICQAAAQIQSELFPSTASANGNLQQSPVYQQTSHMMSALSTNEDMQMQCELFSSPPAVSGNETSTTTTQQVATPGTTMFQTSSSGDGEETGTQAKQIQNSVFQTMVQMQHSGDNQPQVNLFSSTKSMMSVQNSGTQQQGNGLFQQGNEMMSLQSGNFLQQSSHSQAQLFHPQNPIADAQNLSQETQGSLFHSPNPIVHSQTSTTSSEQMQPPMFHSQSTIAVLQGSSVPQDQQSTNIFLSQSPMNNLQTNTVAQEAFFAAPNSISPLQSTSNSEQQAAFQQQAPISHIQTPMLSQEQAQPPQQGLFQPQVALGSLPPNPMPQSQQGTMFQSQHSIVAMQSNSPSQEQQQQQQQQQQQQQQQQQSILFSNQNTMATMASPKQPPPNMIFNPNQNPMANQEQQNQSIFHQQSNMAPMNQEQQPMQFQSQSTVSSLQNPGPTQSESSQTPLFHSSPQIQLVQGSPSSQEQQVTLFLSPASMSALQTSINQQDMQQSPLYSPQNNMPGIQGATSSPQPQATLFHNTAGGTMNQLQNSPGSSQQTSGMFLFGIQNNCSQLLTSGPATLPDQLMAISQPGQPQNEGQPPVTTLLSQQMPENSPLASSINTNQNIEKIDLLVSLQNQGNNLTGSF
notes: NFAT5 (TonEBP), human, 1531 a.a. protein; C-terminal domain (CTD), a.a; 544-1531; The methods for the bacterial construct (pET-28a) say only 'NFAT5 CTD'; also called GFP-NFAT5 CTD; NFAT5 GFP-CTD; not shown: sfGFP, N-terminal, kept
B2: untagged NFAT5 CTD (CTD protein lacking the GFP tag) (domain or fragment, human, UniProt O94916 544-1531, looked up)
chain: DPAAAGALNVNVKKEISSPARPCSFEEAMKAMKTTGCNLDKVNIIPNALMTPLIPSSMIKSEDVTPMEVTAEKRSSTIFKTTKSVGSTQQTLENISNIAGNGSFSSPSSSHLPSENEKQQQIQPKAYNPETLTTIQTQDISQPGTFPAVSASSQLPNSDALLQQATQFQTRETQSREILQSDGTVVNLSQLTEASQQQQQSPLQEQAQTLQQQISSNIFPSPNSVSQLQNTIQQLQAGSFTGSTASGSSGSVDLVQQVLEAQQQLSSVLFSAPDGNENVQEQLSADIFQQVSQIQSGVSPGMFSSTEPTVHTRPDNLLPGRAESVHPQSENTLSNQQQQQQQQQQVMESSAAMVMEMQQSICQAAAQIQSELFPSTASANGNLQQSPVYQQTSHMMSALSTNEDMQMQCELFSSPPAVSGNETSTTTTQQVATPGTTMFQTSSSGDGEETGTQAKQIQNSVFQTMVQMQHSGDNQPQVNLFSSTKSMMSVQNSGTQQQGNGLFQQGNEMMSLQSGNFLQQSSHSQAQLFHPQNPIADAQNLSQETQGSLFHSPNPIVHSQTSTTSSEQMQPPMFHSQSTIAVLQGSSVPQDQQSTNIFLSQSPMNNLQTNTVAQEAFFAAPNSISPLQSTSNSEQQAAFQQQAPISHIQTPMLSQEQAQPPQQGLFQPQVALGSLPPNPMPQSQQGTMFQSQHSIVAMQSNSPSQEQQQQQQQQQQQQQQQQQSILFSNQNTMATMASPKQPPPNMIFNPNQNPMANQEQQNQSIFHQQSNMAPMNQEQQPMQFQSQSTVSSLQNPGPTQSESSQTPLFHSSPQIQLVQGSPSSQEQQVTLFLSPASMSALQTSINQQDMQQSPLYSPQNNMPGIQGATSSPQPQATLFHNTAGGTMNQLQNSPGSSQQTSGMFLFGIQNNCSQLLTSGPATLPDQLMAISQPGQPQNEGQPPVTTLLSQQMPENSPLASSINTNQNIEKIDLLVSLQNQGNNLTGSF
notes: NFAT5 (TonEBP), human, 1531 a.a. protein; C-terminal domain (CTD), a.a; 544-1531; source: E. coli BL21 (DE3) pLysS, purified from inclusion bodies (8 M urea extraction, Superdex 200)
B3: GFP-PLD (superfolder GFP fused to the prion-like domain of NFAT5, a.a. 999-1454) (domain or fragment, human, UniProt O94916 999-1454, looked up)
chain: QIQNSVFQTMVQMQHSGDNQPQVNLFSSTKSMMSVQNSGTQQQGNGLFQQGNEMMSLQSGNFLQQSSHSQAQLFHPQNPIADAQNLSQETQGSLFHSPNPIVHSQTSTTSSEQMQPPMFHSQSTIAVLQGSSVPQDQQSTNIFLSQSPMNNLQTNTVAQEAFFAAPNSISPLQSTSNSEQQAAFQQQAPISHIQTPMLSQEQAQPPQQGLFQPQVALGSLPPNPMPQSQQGTMFQSQHSIVAMQSNSPSQEQQQQQQQQQQQQQQQQQSILFSNQNTMATMASPKQPPPNMIFNPNQNPMANQEQQNQSIFHQQSNMAPMNQEQQPMQFQSQSTVSSLQNPGPTQSESSQTPLFHSSPQIQLVQGSPSSQEQQVTLFLSPASMSALQTSINQQDMQQSPLYSPQNNMPGIQGATSSPQPQATLFHNTAGGTMNQLQNSPGSSQQTSGMFLFGIQNN
notes: NFAT5 (TonEBP), human, 1531 a.a. protein; prion-like domain (PLD), a.a; 999-1454; The methods for the bacterial construct say only 'NFAT5 PLD'; also called GFP-NFAT5 PLD; not shown: sfGFP, N-terminal, kept
B4: untagged NFAT5 PLD (PLD protein lacking the GFP tag) (domain or fragment, human, UniProt O94916 999-1454, looked up)
chain: QIQNSVFQTMVQMQHSGDNQPQVNLFSSTKSMMSVQNSGTQQQGNGLFQQGNEMMSLQSGNFLQQSSHSQAQLFHPQNPIADAQNLSQETQGSLFHSPNPIVHSQTSTTSSEQMQPPMFHSQSTIAVLQGSSVPQDQQSTNIFLSQSPMNNLQTNTVAQEAFFAAPNSISPLQSTSNSEQQAAFQQQAPISHIQTPMLSQEQAQPPQQGLFQPQVALGSLPPNPMPQSQQGTMFQSQHSIVAMQSNSPSQEQQQQQQQQQQQQQQQQQSILFSNQNTMATMASPKQPPPNMIFNPNQNPMANQEQQNQSIFHQQSNMAPMNQEQQPMQFQSQSTVSSLQNPGPTQSESSQTPLFHSSPQIQLVQGSPSSQEQQVTLFLSPASMSALQTSINQQDMQQSPLYSPQNNMPGIQGATSSPQPQATLFHNTAGGTMNQLQNSPGSSQQTSGMFLFGIQNN
notes: NFAT5 (TonEBP), human, 1531 a.a. protein; prion-like domain (PLD), a.a; 999-1454; source: E. coli BL21 (DE3) pLysS, purified from inclusion bodies (8 M urea extraction, Superdex 200)

Results on four proteins are retold here after article doi:10.1101/2023.09.23.559074, “Direct ionic stress sensing and mitigation by the transcription factor NFAT5” (bioRxiv, 2023).

This data set deals with the molecule itself. Description: in vitro phase separation (droplet) assay, fluorescence or brightfield microscopy; purified protein in droplet buffer (20 mM Na-HEPES pH 7.4, 1 mM TCEP) with 5% dextran, NaCl (or other salts) added to the indicated osmolarity; 10 min at room temperature; self-association into droplets.
Regarding B1, the binding result is recorded as “binds”. To B2 belongs “binds”. Then B3, with “binds”. In the case of B4, the binding result is “binds”.
